Reference: US20090227777A1

Target: ovalbumin-hippuric acid conjugate (OVA-HA) (UniProt P01012)
Test: indirect ELISA on hippuric acid antigen, purified soluble scFv-E tag at 10-fold dilution, rabbit anti-E tag and goat anti-rabbit IgG-HRP detection

Sequence of UniProt P01012 (P01012 2-386 limits assumed): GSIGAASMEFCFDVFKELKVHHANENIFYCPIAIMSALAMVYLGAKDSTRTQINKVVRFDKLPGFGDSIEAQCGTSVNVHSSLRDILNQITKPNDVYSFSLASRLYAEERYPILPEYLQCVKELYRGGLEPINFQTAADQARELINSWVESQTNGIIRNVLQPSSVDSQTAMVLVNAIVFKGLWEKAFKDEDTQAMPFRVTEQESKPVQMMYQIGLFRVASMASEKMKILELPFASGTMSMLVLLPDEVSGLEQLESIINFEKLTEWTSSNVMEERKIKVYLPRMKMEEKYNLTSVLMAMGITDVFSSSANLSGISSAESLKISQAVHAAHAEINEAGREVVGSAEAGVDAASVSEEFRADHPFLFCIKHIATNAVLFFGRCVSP

B1: soluble single chain variable fragment scFv-E tag derived from 4D31G111B7 (scFv)
scFv: AAQPAEVMLVESGASVKISCKASGYSFTGYYMHWVKQSHVKTLEWVGRITPYNGATNYNQNFKDKASLTVDKSSSTAYMEFHSLTSEDSAVYYCVRMYADVWGAGTSVTVSSVKTTPPSVYPLAPGGGGSGGGGSGGGGSEIVLTQSPSSLSASLGESVTLACRGASQDIGGRLNWLQQEADGTIKRLIYATSSLDSGVPKRFSGSRSGSDYSLTISSLESEDFVDYYCLQYDRSPYTFGGGTKLEIKRGDAAPTVAA
antibody titer: 0.516
